How the values were obtained:
Assay type in all cases: cell-based
C. albicans (ATCC 64549) = assay: Microbicidal microplate assay (viable counts), C. albicans
Experimental: The bacterial strains S. aureus 1800 (CCUG 1800), E. coli 06, and the yeast C. albicans (ATCC 64549) have been used in the microplate assay. All microorganisms were cultured in brain heart infusion medium (BHI) on a shaker over night at 37° C. A volume of the culture was transferred to a new tube with BHI and incubated for two more h on the shaker. The bacteria were harvested in the log phase, washed once and thereafter suspended in the broth used for the microplate assay. The suspension was adjusted spectrophotometrically and diluted to a concentration of approximately 4×10^6 cells per ml at 650 nm. Washed cells were suspended in 0.2% BP (pH 7.0) or BHI medium diluted 1/10 (0.34%, pH 6.7-6.9) (Difco, USA). The concentration of bacterial or fungal cells was spectrophotometrically adjusted. LF or peptide, serially diluted in BHIdil or BP by twofold steps (unless otherwise stated), were added in triplicate to the wells of a microtiterplate (200 ul per well). The bacterial or yeast cell solutions were added in 10 ul volumes to give a final concentration of approximately 2×10^5 cells per ml. The concentration of the stock solution was always checked by viable counts. The microplate was incubated at 37° C. in a humid chamber for 2 h unless otherwise stated. Five ul were taken from each well and added as a drop onto a blood agar plate and incubated over night at 37° C. In some experiments more thorough viable counts were performed and the killing was expressed as remaining colony forming units in relation to the inoculum. The lower limit for detection of microorganisms was 200 CFU/ml. The antimicrobial activity of human LF was analysed by the microbicidal assay described above. Different microbes such as C. albicans, E. coli and S. aureus were analysed with respect to their survival in lactate (not containing the inert gel base, which makes the gel unsuitable for the microbicidal assay) containing LF. […] LF was incubated together with various concentrations of lactate diluted in 0.2% bactopeptone and C. albicans for 2 h. Thereafter each solution was analysed for viable counts.

E. coli 06 = assay: Microbicidal microplate-droplet assay, E. coli; set-up: key to E. coli killing, growth grade in droplet assay: +++ means that the number of colony forming units (CFU) contained within 5 ul of a droplet formed a smooth layer of bacteria; ++ means that a “ruffled” area is seen; 0 means that no CFU were found in triplicate samples of 5 ul (>99.95 killed of the inoculum)
Experimental: The bacterial strains S. aureus 1800 (CCUG 1800), E. coli 06, and the yeast C. albicans (ATCC 64549) have been used in the microplate assay. All microorganisms were cultured in brain heart infusion medium (BHI) on a shaker over night at 37° C. A volume of the culture was transferred to a new tube with BHI and incubated for two more h on the shaker. The bacteria were harvested in the log phase, washed once and thereafter suspended in the broth used for the microplate assay. The suspension was adjusted spectrophotometrically and diluted to a concentration of approximately 4×10^6 cells per ml at 650 nm. Washed cells were suspended in 0.2% BP (pH 7.0) or BHI medium diluted 1/10 (0.34%, pH 6.7-6.9) (Difco, USA). The concentration of bacterial or fungal cells was spectrophotometrically adjusted. LF or peptide, serially diluted in BHIdil or BP by twofold steps (unless otherwise stated), were added in triplicate to the wells of a microtiterplate (200 ul per well). The bacterial or yeast cell solutions were added in 10 ul volumes to give a final concentration of approximately 2×10^5 cells per ml. The concentration of the stock solution was always checked by viable counts. The microplate was incubated at 37° C. in a humid chamber for 2 h unless otherwise stated. Five ul were taken from each well and added as a drop onto a blood agar plate and incubated over night at 37° C. In some experiments more thorough viable counts were performed and the killing was expressed as remaining colony forming units in relation to the inoculum. The lower limit for detection of microorganisms was 200 CFU/ml. The antimicrobial activity of human LF was analysed by the microbicidal assay described above. Different microbes such as C. albicans, E. coli and S. aureus were analysed with respect to their survival in lactate (not containing the inert gel base, which makes the gel unsuitable for the microbicidal assay) containing LF.

G. vaginalis (Gv 14) = assay: Growth inhibition of G. vaginalis by LF, spectrophotometric, 20 h anaerobic; details: LF in various concentrations, no lactate, 0.34% BHI
Experimental: The bacteria were incubated in 0.34% BHI under anaerobic conditions for 20 hours.
G. vaginalis and P. bivia were cultured on chocolate-GL-plates for 48 h in anaerobic milieu. The bacteria were harvested and suspended in BHI for further incubation (4 hours at 37° C.). The bacteria were washed twice in Bactopeptone (BP, 0.2%). The concentration was adjusted spectrophotometrically and diluted to 1×10^7 bacteria per ml.
The procedure for the microbicidal assay with regard to G. vaginalis and P. bivia was as described above except that the microplate was incubated under anaerobic conditions (2 h). Thereafter droplets of the solutions were analyzed for viable bacteria on blood agar plates after 48 h of anaerobic incubation at 37° C.
The microbicidal assay was modified in order to obtain survival conditions for G. vaginalis and P. bivia. Instead of 0.2% BP 0.34% BHI was used. The bacterial strains were analyzed with only LF added in various concentrations to the wells (no lactate present). The plate was incubated for 20 hours.

B1: LF: LF from human milk purchased from Sigma; single chain iron-binding glycoprotein (protein, UniProt P02788 20-710, looked up)
Lactotransferrin: GRRRSVQWCAVSQPEATKCFQWQRNMRKVRGPPVSCIKRDSPIQCIQAIAENRADAVTLDGGFIYEAGLAPYKLRPVAAEVYGTERQPRTHYYAVAVVKKGGSFQLNELQGLKSCHTGLRRTAGWNVPIGTLRPFLNWTGPPEPIEAAVARFFSASCVPGADKGQFPNLCRLCAGTGENKCAFSSQEPYFSYSGAFKCLRDGAGDVAFIRESTVFEDLSDEAERDEYELLCPDNTRKPVDKFKDCHLARVPSHAVVARSVNGKEDAIWNLLRQAQEKFGKDKSPKFQLFGSPSGQKDLLFKDSAIGFSRVPPRIDSGLYLGSGYFTAIQNLRKSEEEVAARRARVVWCAVGEQELRKCNQWSGLSEGSVTCSSASTTEDCIALVLKGEADAMSLDGGYVYTAGKCGLVPVLAENYKSQQSSDPDPNCVDRPVEGYLAVAVVRRSDTSLTWNSVKGKKSCHTAVDRTAGWNIPMGLLFNQTGSCKFDEYFSQSCAPGSDPRSNLCALCIGDEQGENKCVPNSNERYYGYTGAFRCLAENAGDVAFVKDVTVLQNTDGNNNEAWAKDLKLADFALLCLDGKRKPVTEARSCHLAMAPNHAVVSRMDKVERLKQVLLHQQAKFGRNGSDCPDKFCLFQSETKNLLFNDNTECLARLHGKTTYEKYLGPQYVAGITNLKKCSTSPLLEACEFLRK
- inoculate killed (C. albicans (ATCC 64549); LF 2 mg/ml in lactate 1%, 2 h): 92%
- inoculate killed (C. albicans (ATCC 64549); LF 5 mg/ml in lactate 1%, 2 h): 98.2%
- reduction of yeast cells (C. albicans (ATCC 64549); LF in lactate concentrations 0.2%, 0.04% and 0%, 0.2% bactopeptone, 2 h): 99.9%
- effect of LF on antimicrobial effect of lactate against C. albicans (C. albicans (ATCC 64549); lactate diluted fivefold or more (≦1%), all LF concentrations except 0.5 mg at 1% lactate): enhanced the antimicrobial effect of lactate
- microbicidal activity against C. albicans, LF compared with rHLF (C. albicans (ATCC 64549); without lactate, 0.25 and 0.125 mg/ml, 2 h of incubation): somewhat more active
- E. coli killing, growth grade in droplet assay (E. coli 06; HLF 500 ug/ml, lactate 0.2%, 2 h incubation): ++
- E. coli killing, percentage of bacteria remaining in relation to the inoculum (E. coli 06; HLF 500 ug/ml, lactate 0.2%, 5 h incubation): 4%
- E. coli killing, growth grade in droplet assay (E. coli 06; HLF 500 ug/ml, lactate 1%, 2 h incubation): ++
- E. coli killing, percentage of bacteria remaining in relation to the inoculum (E. coli 06; HLF 500 ug/ml, lactate 1%, 5 h incubation): 5%
- E. coli killing, percentage of bacteria remaining in relation to the inoculum (E. coli 06; HLF 500 ug/ml, lactate 5%, 2 h incubation): 0 (0 means that no CFU were found in triplicate samples of 5 ul (>99.95 killed of the inoculum))
- E. coli killing, percentage of bacteria remaining in relation to the inoculum (E. coli 06; HLF 500 ug/ml, lactate 5%, 5 h incubation): 0 (0 means that no CFU were found in triplicate samples of 5 ul (>99.95 killed of the inoculum))
- E. coli killing, growth grade in droplet assay (E. coli 06; HLF 500 ug/ml, no lactal, 2 h incubation): +++
- E. coli killing, growth grade in droplet assay (E. coli 06; HLF 500 ug/ml, no lactal, 5 h incubation): +++
- E. coli killing, percentage of bacteria remaining in relation to the inoculum (E. coli 06; HLF 2000 ug/ml, lactate 0.2%, 5 h incubation): 5%
- E. coli killing, percentage of bacteria remaining in relation to the inoculum (E. coli 06; HLF 2000 ug/ml, lactate 1%, 5 h incubation): 9%
- E. coli killing, percentage of bacteria remaining in relation to the inoculum (E. coli 06; HLF 2000 ug/ml, lactate 5%, 2 h incubation): 0 (0 means that no CFU were found in triplicate samples of 5 ul (>99.95 killed of the inoculum))
- E. coli killing, percentage of bacteria remaining in relation to the inoculum (E. coli 06; HLF 2000 ug/ml, lactate 5%, 5 h incubation): 0 (0 means that no CFU were found in triplicate samples of 5 ul (>99.95 killed of the inoculum))
- E. coli killing, growth grade in droplet assay (E. coli 06; HLF 2000 ug/ml, no lactal, 2 h incubation): ++
- E. coli killing, percentage of bacteria remaining in relation to the inoculum (E. coli 06; HLF 2000 ug/ml, no lactal, 5 h incubation): 3%
- E. coli killing, growth grade in droplet assay (E. coli 06; HLF 5000 ug/ml, lactate 0.2%, 2 h incubation): ++
- E. coli killing, percentage of bacteria remaining in relation to the inoculum (E. coli 06; HLF 5000 ug/ml, lactate 0.2%, 5 h incubation): 0.4%
- E. coli killing, percentage of bacteria remaining in relation to the inoculum (E. coli 06; HLF 5000 ug/ml, lactate 1%, 5 h incubation): 16%
- E. coli killing, percentage of bacteria remaining in relation to the inoculum (E. coli 06; HLF 5000 ug/ml, lactate 5%, 2 h incubation): 0 (0 means that no CFU were found in triplicate samples of 5 ul (>99.95 killed of the inoculum))
- E. coli killing, percentage of bacteria remaining in relation to the inoculum (E. coli 06; HLF 5000 ug/ml, lactate 5%, 5 h incubation): 0 (0 means that no CFU were found in triplicate samples of 5 ul (>99.95 killed of the inoculum))
- E. coli killing, growth grade in droplet assay (E. coli 06; HLF 5000 ug/ml, no lactal, 2 h incubation): ++
- E. coli killing, percentage of bacteria remaining in relation to the inoculum (E. coli 06; HLF 5000 ug/ml, no lactal, 5 h incubation): 2%
- growth inhibition of G. vaginalis (G. vaginalis (Gv 14)): Growth inhibition

Source: US20080161234A1, “Composition Comprising Lactic Acid and Lactoferrin” (priority 2004, published 2008)
